{"source": "paper PMC5063613", "about": "(Molecular Biology of the Cell, 2016)", "binders": {"B1": {"name": "SMCR8-tdTomato (natural protein)", "chain": "MISAPDVVAFTKEEEYEEEPYNEPALPEEYSVPLFPFASQGANPWSKLSGAKFSRDFILISEFSEQVGPQPLLTIPNDTKVFGTFDLNYFSLRIMSVDYQASFVGHPPGSAYPKLNFVEDSKVVLGDSKEGAFAYVHHLTLYDLEARGFVRPFCMAYISADQHKIMQQFQELSAEFSRASECLKTGNRKAFAGELEKKLKDLDYTRTVLHTETEIQKKANDKGFYSSQAIEKANELASVEKSIIEHQDLLKQIRSYPHRKLKGHDLCPGEMEHIQDQASQASTTSNPDESADTDLYTCRPAYTPKLIKAKSTKCFDKKLKTLEELCDTEYFTQTLAQLSHIEHMFRGDLCYLLTSQIDRALLKQQHITNFLFEDFVEVDDRMVEKQESIPSKPSQDRPPSSSLEECPIPKVLISVGSYKSSVESVLIKMEQELGDEEYKEVEVTELSSFDPQENLDYLDMDMKGSISSGESIEVLGTEKSTSVLSKSDSQASLTVPLSPQVVRSKAVSHRTISEDSIEVLSTCPSEALIPDDFKASYPSAINEEESYPDGNEGAIRFQASISPPELGETEEGSIENTPSQIDSSCCIGKESDGQLVLPSTPAHTHSDEDGVVSSPPQRHRQKDQGFRVDFSVENANPSSRDNSCEGFPAYELDPSHLLASRDISKTSLDNYSDTTSYVSSVASTSSDRIPSAYPAGLSSDRHKKRAGQNALKFIRQYPFAHPAIYSLLSGRTLVVLGEDEAIVRKLVTALAIFVPSYGCYAKPVKHWASSPLHIMDFQKWKLIGLQRVASPAGAGTLHALSRYSRYTSILDLDNKTLRCPLYRGTLVPRLADHRTQIKRGSTYYLHVQSMLTQLCSKAFLYTFCHHLHLPTHDKETEELVASRQMSFLKLTLGLVNEDVRVVQYLAELLKLHYMQESPGTSHPMLRFDYVPSFLYKI"}}, "biological_target": "T1, GFP-C9orf72 (human, UniProt Q96LT7-1 1-481)", "T1 sequence": "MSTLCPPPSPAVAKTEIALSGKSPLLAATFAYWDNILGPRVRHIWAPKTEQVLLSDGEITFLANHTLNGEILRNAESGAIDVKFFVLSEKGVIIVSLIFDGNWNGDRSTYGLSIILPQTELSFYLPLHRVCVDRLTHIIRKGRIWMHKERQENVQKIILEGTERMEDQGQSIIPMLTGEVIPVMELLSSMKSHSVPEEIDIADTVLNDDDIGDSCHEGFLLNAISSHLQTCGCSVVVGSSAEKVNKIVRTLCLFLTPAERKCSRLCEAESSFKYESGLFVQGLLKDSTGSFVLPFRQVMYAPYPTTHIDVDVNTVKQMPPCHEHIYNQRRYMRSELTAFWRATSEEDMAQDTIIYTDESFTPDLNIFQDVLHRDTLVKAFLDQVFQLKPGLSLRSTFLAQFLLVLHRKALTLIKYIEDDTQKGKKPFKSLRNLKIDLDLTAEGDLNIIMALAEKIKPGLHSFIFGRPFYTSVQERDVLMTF", "assay": "co-IP"}
{"binder": "B1", "values": [{"measurement": "stoichiometry N", "result": "~1"}]}
